Paper PMC10404369, “Epithelial cell adhesion molecule (EpCAM) regulates HGFR signaling to promote colon cancer progression and metastasis” (Journal of Translational Medicine, 2023)

Key:
[1] = target: T1, HGFRECD-His recombinant protein (human, UniProt P08581 25-932); test: pull-down; EpEX-Fc and HGFR-His recombinant protein (2.5 μg/ml); IP with Dynabeads Protein G, Western blotting with anti-6× His tag antibody; details: both partners purified
T1 construct: human HGFR (c-MET) recombinant protein, extracellular domain; also called HGFR-His; HGFR-His recombinant protein; source: bought: Sino Biological

[2] = target: T1, HGFRECD-His recombinant protein; test: ELISA; HGFR-His recombinant protein (2 μg/ml) added to plates coated with EGF-like-domain deletion mutant-Fc (1 μg/ml); TMB colorimetric peroxidase assay; details: both partners purified

T1 sequence (P08581 25-932): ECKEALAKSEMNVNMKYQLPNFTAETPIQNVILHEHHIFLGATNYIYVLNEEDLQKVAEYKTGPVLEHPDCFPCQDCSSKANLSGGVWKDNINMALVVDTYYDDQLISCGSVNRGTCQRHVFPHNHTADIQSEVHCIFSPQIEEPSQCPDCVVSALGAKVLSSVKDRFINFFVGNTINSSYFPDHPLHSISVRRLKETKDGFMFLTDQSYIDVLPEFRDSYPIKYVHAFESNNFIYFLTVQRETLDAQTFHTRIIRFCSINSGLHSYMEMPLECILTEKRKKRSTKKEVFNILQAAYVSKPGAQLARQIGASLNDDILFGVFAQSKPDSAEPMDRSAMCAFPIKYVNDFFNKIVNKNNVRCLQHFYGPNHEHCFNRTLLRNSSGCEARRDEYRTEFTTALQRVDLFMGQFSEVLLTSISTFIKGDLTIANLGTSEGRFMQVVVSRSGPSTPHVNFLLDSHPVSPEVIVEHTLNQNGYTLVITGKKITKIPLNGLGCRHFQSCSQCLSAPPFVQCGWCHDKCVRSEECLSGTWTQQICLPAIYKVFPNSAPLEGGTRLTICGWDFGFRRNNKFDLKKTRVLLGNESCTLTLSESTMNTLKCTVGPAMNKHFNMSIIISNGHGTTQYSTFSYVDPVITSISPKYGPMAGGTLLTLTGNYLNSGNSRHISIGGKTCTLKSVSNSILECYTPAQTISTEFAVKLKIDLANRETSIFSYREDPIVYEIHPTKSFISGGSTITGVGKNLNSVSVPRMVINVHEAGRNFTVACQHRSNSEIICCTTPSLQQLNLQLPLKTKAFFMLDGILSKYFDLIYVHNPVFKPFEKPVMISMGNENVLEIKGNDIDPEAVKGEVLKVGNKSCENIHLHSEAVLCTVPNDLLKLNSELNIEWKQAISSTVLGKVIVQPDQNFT

| Binder | binding result [1] | binding result [2] |
| --- | --- | --- |
| EpEX-Fc recombinant protein (Fc fusion, human, UniProt P16422 24-265, looked up, also called recombinant EpEX-Fc) QEECVCENYKLAVNCFVNNNRQCQCTSVGAQNTVICSKLAAKCLVMKAEMNGSKLGRRAKPEGALQNNDGLYDPDCDESGLFKAKQCNGTSMCWCVNTAGVRRTDKDTEITCSERVRTYWIIIELKHKAREKPYDSKSLRTALQKEITTRYQLDPKFITSILYENNVITIDLVQNSSQKTQNDVDIADVAYYFEKDVKGESLFHSKKMDLTVNGEQLDLDPGQTLIYYVDEKAPEFSMQGLK | binds | – |
| EpEX_(ΔEGFII)-Fc (Fc fusion, human, UniProt P16422 24-265, looked up, EpEX, extracellular domain of EpCAM, with EGF-like domain II (amino acids 66–135) deleted; also called EGF-like-domain deletion mutant-Fc) QEECVCENYKLAVNCFVNNNRQCQCTSVGAQNTVICSKLAAKSERVRTYWIIIELKHKAREKPYDSKSLRTALQKEITTRYQLDPKFITSILYENNVITIDLVQNSSQKTQNDVDIADVAYYFEKDVKGESLFHSKKMDLTVNGEQLDLDPGQTLIYYVDEKAPEFSMQGLK | – | binds |
| EpEX_(ΔEGFI)-Fc (Fc fusion, human, UniProt P16422 24-265, looked up, EpEX, extracellular domain of EpCAM, with EGF-like domain I (amino acids 27–59) deleted; also called EGF-like-domain deletion mutant-Fc) QEESKLAAKCLVMKAEMNGSKLGRRAKPEGALQNNDGLYDPDCDESGLFKAKQCNGTSMCWCVNTAGVRRTDKDTEITCSERVRTYWIIIELKHKAREKPYDSKSLRTALQKEITTRYQLDPKFITSILYENNVITIDLVQNSSQKTQNDVDIADVAYYFEKDVKGESLFHSKKMDLTVNGEQLDLDPGQTLIYYVDEKAPEFSMQGLK | – | binds |
